# Source: paper PMC5829564 (Nucleic Acids Research, 2018)
# T1: Grhl1 DBD (Homo sapiens, UniProt Q9NZI5 248-485)
# T1 sequence: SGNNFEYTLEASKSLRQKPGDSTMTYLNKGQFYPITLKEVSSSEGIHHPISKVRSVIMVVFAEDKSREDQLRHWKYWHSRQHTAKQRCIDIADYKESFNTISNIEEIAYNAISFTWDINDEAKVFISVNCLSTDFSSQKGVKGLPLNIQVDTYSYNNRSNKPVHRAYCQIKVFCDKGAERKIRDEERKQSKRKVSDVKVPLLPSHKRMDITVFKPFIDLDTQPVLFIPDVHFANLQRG
# B1: Mut_12mer (dsDNA)
# DNA 1: AAAATCGATTTT
# DNA 2: AAAATCGATTTT
# B2: ΔN_Grhl1 (N-terminal truncation construct of human Grhl1, aa 248–618; DBD plus dimerization domain) (domain or fragment, UniProt Q9NZI5 248-618, looked up)
# chain: SGNNFEYTLEASKSLRQKPGDSTMTYLNKGQFYPITLKEVSSSEGIHHPISKVRSVIMVVFAEDKSREDQLRHWKYWHSRQHTAKQRCIDIADYKESFNTISNIEEIAYNAISFTWDINDEAKVFISVNCLSTDFSSQKGVKGLPLNIQVDTYSYNNRSNKPVHRAYCQIKVFCDKGAERKIRDEERKQSKRKVSDVKVPLLPSHKRMDITVFKPFIDLDTQPVLFIPDVHFANLQRGTHVLPIASEELEGEGSVLKRGPYGTEDDFAVPPSTKLARIEEPKRVLLYVRKESEEVFDALMLKTPSLKGLMEAISDKYDVPHDKIGKIFKKCKKGILVNMDDNIVKHYSNEDTFQLQIEEAGGSYKLTLTEI
# Key:
# Grhl1 DBD = target: T1, Grhl1 DBD; test: ITC
# SEC-RALS = target: the molecule itself; test: SEC-RALS
Binder,binding result (Grhl1 DBD),stoichiometry N (SEC-RALS)
B1,no binding,–
B2,–,2
